Results taken from patent US20200270570A1.

How the values were obtained:
[1] = target: T1, mouse Fz8 (mouse) (UniProt Q61091); experiment: FIG. 12A: L-Wnt3A incubated with Fz8 for 12 h RT, ultracentrifugation, western blot
T1 sequence (looked up): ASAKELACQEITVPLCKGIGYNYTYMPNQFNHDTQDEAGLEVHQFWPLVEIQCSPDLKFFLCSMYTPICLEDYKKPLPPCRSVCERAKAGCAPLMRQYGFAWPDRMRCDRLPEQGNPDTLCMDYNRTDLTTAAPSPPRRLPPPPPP

[2] = target: T1, mouse Fz8 (mouse); experiment: FIG. 12A: preformed L-Wnt3A incubated with Fz8 (longer time course), ultracentrifugation, immunoblot
[3] = target: T1, mouse Fz8 (mouse); experiment: FIG. 11A: preformed L-Wnt3A incubated with Fz8 6 h RT, ultracentrifugation, western blot
[4] = target: L-Wnt3A (Wnt3A reconstituted into liposomes) (human) (UniProt P56704); experiment: FIG. 11A: preformed L-Wnt3A incubated with Fz8 6 h RT, ultracentrifugation, immunoblot
Sequence of UniProt P56704 (P56704 19-352 limits assumed): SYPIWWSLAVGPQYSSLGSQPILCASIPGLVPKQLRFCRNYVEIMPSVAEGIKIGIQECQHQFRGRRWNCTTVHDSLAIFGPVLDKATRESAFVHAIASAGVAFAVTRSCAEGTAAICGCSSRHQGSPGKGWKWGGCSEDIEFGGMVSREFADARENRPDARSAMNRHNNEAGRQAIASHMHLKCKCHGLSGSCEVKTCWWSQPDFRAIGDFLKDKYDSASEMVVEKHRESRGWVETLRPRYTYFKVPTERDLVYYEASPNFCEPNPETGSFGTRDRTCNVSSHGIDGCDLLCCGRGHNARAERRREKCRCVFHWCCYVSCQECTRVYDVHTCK

[5] = target: L-Wnt3A (Wnt3A reconstituted into liposomes) (human) (UniProt P56704); experiment: FIG. 12A: preformed L-Wnt3A incubated with Fz8 (longer time course), ultracentrifugation, immunoblot

Substance | percent of Wnt3A in Fz8 rich supernatant [1] | percent of Wnt3A in liposomal pellet (not with Fz8) [2] | percent of Wnt3A in liposomal pellet (not with Fz8) [3] | percent of Fz8 in supernatant (not liposome-associated) [4] | percent of Fz8 in supernatant (not liposome-associated) [5]
L-Wnt3A (Wnt3A reconstituted into liposomes) (from UniProt P56704 19-352) | 11% | 88.7% | 100% |  | 
mouse Fz8 (from UniProt Q61091 28-173) (receptor) |  |  |  | 98.6% | 94.5%
